Reference: the DeepSol protein solubility set

Experiment: soluble on expression in E. coli; label from the status in PepcDB or PDB records

Sequence | soluble on expression in E. coli
LFAAIVDNLSDGIYVLQDDRVVYLNERFAQLFGHGDAGSLLMRELDDILPHGEGKEIVGRIHAELLAGEPSSVAWGQPFAHMDGTPVWLEMEARRIRLNGRPAILGVCHDRT | not soluble
MIPGEYRLREEPIVCNRQKSATKLTVVNRGDRPVQVGSHFHFFEVNSFLEFDRQAAYGKHLNIPAGTAVRFEPGDAKQVELVPFSGERRVYGLNNMVNGPLDGNGKGGVRE | soluble
MDTLPECPITNTASLLPHSGRMVLIDRITRYGDDFVEAGAQVSPNHILLLDDKLPYTAFIELMAQAVGAYAGIQARKNARSVRLGFLLGTRKLEIFAQSVPIGTHLLATAHMSIQDAGGMGVFDCELRWTDAPETSSETLPSDGILARASLNVYSPEHPAGTTDAVLEHHHHHH | not soluble
MSGYACNQPQLYSQCNCPSFCSGYMQQQPQYYQSPCGYSSGCSGGSGGGYYPRRRHHKHKKPRRKFRFDSDEDEDLPPPPPRKSAKISRVHSEEQGFIEEKPRVTETTKTDSSWENEDLWEKKFVTESTHTKAEEKLDSEEFPEITSEEIEAAMRRKTTLPPRVVQPQPVAPAGGGLGGLGLGNGGLFGISSGVGVGVPGVGPIGVSSGLGIGK | not soluble
MMGCMMIYNPKQLANHLKLIRTKHNLTQTELAKKVGVKQSTLSSFENHPETTQLQTLFKILHALEVHCIIQEQVPASHEDNLDDEAW | not soluble
MANLKSLPVGDKAPEVVHMVIEVPRGSGNKYEYDPDLGAIKLDRVLPGAQFYPGDYGFIPSTLAEDGDPLDGLVLSTYPLLPGVVVEVRVVGLLLMEDEKGGDAKVIGVVAEDQRLDHIQDIGDVPEGVKQEIQHFFETYKALEAKKGKWVKVTGWRDRKAALEEVRACIARYKG | soluble
MSDNSTGTTKSRSNVDDVQAHYDLSDAFFALFQDPTRTYSCAYFERDDMTLHEAQVAKLDLTLGKLGLEPGMTLLDVGCGWGSVMKRAVERYDVNVVGLTLSKNQHAYCQQVLDKVDTNRSHRVLLSDWANFSEPVDRIVTIEAIEHFGFERYDDFFKFAYNAMPADGVMLLHSITGLHVKQVIERGIPLTMEMAKFIRFIVTDIFPGGRLPTIETIEEHVTKAGFTITDIQSLQPHFARTLDLWAEALQAHKDEAIEIQSAEVYERYMKYLTGCAKAFRMGYIDCNQFTLAK | soluble
MSLANKKFWLITDTHFDDEFTVGSSSKCLAIDCCHSNSIPRKGQENFISGSCGDYNCYSPLNVSESAFDYIAKHQSESKLIFWLMDVVPGDVITQSKETNKKRIQLQVEALKKRLSGFRIYPVPGNHDYWLSSNWQYPPQNQWMLDFMGDLFKDWLSPNALEQFKKGGFYTELIDSGVRIIALYLAYVDVYGSHCNEYVENDPAGMMKWFNETLELARKNGERVILLSHEGVGLKESGTIDVVPKFNEDFSYAMNEYSDIIISHLSGHSHFNSFRVLPNITKPTFHIIMNPAMTSFKNLNPRFRLYEYDRKNIKDYTNYMLNINKCNKNNKFEWEIEYNAKELFGIEEYTTKNLKEFIEQLAVDDELWTKFDSHYSTINRKCEGNCRKDLLCSIHCMKESEFITCINQKEGHHHHHH | not soluble
KARGNVGFVAGSSYGTGSVWTRNNEVVVLTASHVVGRANMATLKIGDAMLTLTFKKNGDFAEAVTTQSELPGNWPQLHFAQPTTGPASWCTATGDEEGLLSGEVCLAWTTSGDSGSAVVQGDAVVGVHTGSNTSGVAYVTTPSGKLLGADTVTLSSLSKHFTGPLTSIPKDIPDNIIADVDAVPRSLAMLIDGLSNRE | soluble
QSKTATVFLHGYNGGAYSTNYLIRKAEKAGAAQKALVVHVYKNGVMAFKGYWQKSIKNPMVQVVFQDNHASQKAQIYWLHQVLVQLKAKYGVKAYNAVGHSLGANDIVNQALKYGHDKRLPTLNKIVTIGGPFDGLTGFLSTQTEATVRRLDVKPSRFTKHFSEMLKYRHNFPDNVKLLNVYGDTNTGYNNDGFVGVASARSIRYLLRGKLTQYQEAFYSGEQAAHCALNQNPSVAHKMIAFLW | not soluble
MIKPVGSDELKPLFVYDPEEHHKLSHEAESLPSVVISSQAAGNAVMMGAGYFSPLQGFMNVADAMGAAEKMTLSDGSFFPVPVLCLLENTDAIGDAKRIALRDPNVEGNPVLAVMDIEAIEEVSDEQMAVMTDKVYRTTDMDHIGVKTFNSQGRVAVSGPIQVLNFSYFQADFPDTFRTAVEIRNEIKEHGWSKVVAFQTRNPMHRAHEELCRMAMESLDADGVVVHMLLGKLKKGDIPAPVRDAAIRTMAEVYFPPNTVMVTGYGFDMLYAGPREAVLHAYFRQNMGATHFIIGRDHAGVGDYYGAFDAQTIFDDEVPEGAMEIEIFRADHTAYSKKLNKIVMMRDVPDHTKEDFVLLSGTKVREMLGQGIAPPPEFSRPEVAKILMDYYQSINS | soluble
MEDPLGRLEWIKFLSAFYDKEDKAENYFNQQVSKVMATENKVSSLKKPKVAFGMVDNGKVYIPAKNSYAAKMVDMAGGDYIFKDLNNKSGYITLEDFYSKSKDADVLIYSSSKEYTPSLKSMLSAAPILKTIKPVKNKKVWCFGKDYYQAIDKTDEIIEDLASIFHPESFKGYKIKHYSHLEHHHHHH | soluble
MPTNTFFHLPEEKQQRLLDAAQIEFSRHSLQEASIANIVKLAGIPRGSFYQYFENKEDLYFYYFATLRKNSERDLEKQIIAENGDLIEAMDVYFSKMIVEVLTGENASFYRNLFVNMDYRASRRVTDNLATGEEEKNRKQHCHKHRGRKGHAAYAEHLYQIIDHSKLTIETPKEFTWFMQTAMHAVFSTIVDGYRQQRENTAYDSTEAVKQLKMKLSWLKNGAYK | not soluble
MGSDKIHHHHHHMFRIQLRTMSSKTCKSDYPKEFVSFLNSSHSPYHTVHNIKKHLVSNGFKELSERDSWAGHVAQKGKYFVTRNGSSIIAFAVGGKWEPGNPIAITGAHTDSPALRIKPISKRVSEKYLQVGVETYGGAIWHSWFDKDLGVAGRVFVKDAKTGKSIARLVDLNRPLLKIPTLAIHLDRDVNQKFEFNRETQLLPIGGLQEDKTEAKTEKEINNGEFTSIKTIVQRHHAELLGLIAKELAIDTIEDIEDFELILYDHNASTLGGFNDEFVFSGRLDNLTSCFTSMHGLTLAADTEIDRESGIRLMACFDHEEIGSSSAQGADSNFLPNILERLSILKGDGSDQTKPLFHSAILETSAKSFFLSSDVAHAVHPNYANKYESQHKPLLGGGPVIKINANQRYMTNSPGLVLVKRLAEAAKVPLQLFVVANDSPCGSTIGPILASKTGIRTLDLGNPVLSMHSIRETGGSADLEFQIKLFKEFFERYTSIESEIVV | not soluble
MAKNSRSKTQFENMKYEIAKEVGVNLKQGYNGDLTAREAGKIGGNIVKKVFQSYTGNSYPSERLGDTSR | not soluble
MSLNLTVSDVVELMGDAVVQTGEASLQTQPVEWVSVIETPVENFVRENELVLTTGIGCGEDEERFLQFVHDIAASNAAALAIAMGRFVKHIPDRVLHYASTHGLILLEIPWELRFADLIQSVLLQMEQRKQKEIEQAESLRKQLLEMEGHHHHHH | soluble
MSASSERELYEAWVELLSWMREYAQAKGVRFEKEADFPDFIYRMERPYDLPTTIMTASLSDGLGEPFLLADVSPRHAKLKRIGLRLPRAHIHLHAHYEPGKGLVTGKIPLTKERFFALADRAREALAFA | soluble
MGSDKIHHHHHHMTMLSTPQPTLADLAIEPGLPTVVSPRAGAAISLEEAAPLLRAIVDDTLERAGGVLFTGFHVASIDAFQSFAGSFGHPLIGYEFASTPRSQVEGAVYTSTEYPPHRSIPLHNEQSYTREWPLRIWFHCALAARSGGATPIADSRAIYRALDPALVDRFAKRELLYVRNFGQGLDLPWEQAFGSADPRTVERICRARGIECEWRDSEDGELLLRTRERCQAVARHPRTGEHVWFNQANLFHLSSLDEDMQEALIDSVGLENVPRNVYYGDGEPLEADALAEIRGVLDQQRIVFPWLTGDVLMLDNMLSAHARDPFEGPRKVVVAMARSYSEAEGEKRTAAP | not soluble
MSLTTATTSQTALRSRKDVPLSDCWDTKSLYASREVWQDELKKVGAEGAPFWPHLSENNFDIKQPSSLRELLTTVFSIERTLDKLYVYAHLTYDEDIANQEAAADLKSITFLLTSFVEEISWIQPALIALPQQVVNMLLASPELQEYHFYLKKLFRLAPHTGTSREEKILASSFPALEVAYKTFSSLTDSEIPFGEAVDSEGKSHPLSHALASLYMQSTDRELRKNTYQKQCQRHHGYRLSLANLLNGKIQAHLFNAKARDYDSCLEAALFQNDISTSVVTTLIDTVKQHTHLITEYFQLKQKALGLSDFHFYDVYAPLVASEASRHYSYQEAVTLICDSLSLLGNDYVETLRKGLTSDGWVDKYENTNKRSGAYSSGCYDSKPYILLNYTGTLYDVSVVAHEGGHSMHSFLSHKHQSYHEAQYPIFLAEIASTLNETLLMEFLLKQAPSKEEKIAILSRSLDTVFATLFRQTLFAAFELEMHSAAEQGLPLTEEFFSQSYEKLQRLFYGDCITFDEHSCIEWARIPHFYYNFYVYQYATGIIASLCFSERILSGEEGAQEAYLTFLRSGGSDFPIEILKKSGLDMTSSAPMLKAFSYIERKLEELASLLEGHHHHHH | soluble
EEKYVTVQPYTSQSKDEIGFEKGVTVEVIRKNLEGWWYIRYLGKEGWAPASYLKKAKD | soluble
MGSDKIHHHHHHMSEPIIISIHNYKSAGVTFYSIIDRQFKKDEILNSDLLGMDDTYLMLSQADEKIINKIKIIHGHFPFGLDRLLPQKSTYITFLRNPIERLISDYYYCKDFALAHNHSYASTMSFKEYLSCSDILNIDNGQTRFVAGGENVPYGDNSIEMLNRAIENIEKRFSFVGITEKFDESLLIANAVFSWNQYYYTSKNITSSKSYDFDEETWELLRKRNFLDLQLYEYALKKHAGDLKKIPYVKLKMILLKTLKSLFVVTKSIYAPVKKRFFR | not soluble
GTPLPENENMSLYQSRVTVGELEMLASRFVGRTRVRNAFAQYWSQQRETLLPNQQASSALIRHTERVLAGVFGASSAKLVLTSALQGRKMQLEEVATIVDEASELYDFSRGLLQGAIEHIG | not soluble
NNMHHLAVVGARDSTSYTQQSLEFLLSNDKSKYLTIVSGLAQGADAMAHQIALKYNLPTIAVLAFGHQTHYPKSTLALRNKIEEKGLVISEYPPHTPIAKYRFPERNRIISGLSKGVLITEAKEQSGSHITIDFALEQNRNVYVLPGSMFNPMTKGNLLRIQEGAKVVLNANDIFEDYYI | not soluble
GAMAMPMIEYLERFSLKAKINNTTNLDYSRRFLEPFLRGINVVYTPPQSFQSAPRVYRVNGLSRAPASSETFEHDGKKVTIASYFHSRNYPLKFPQLHCLNVGSSIKSILLPIELCSIEEGQALNRKDGATQVANMIKYAATS | soluble
